Results published in US20120263734A1.

Target: GPCMV gB (glycoprotein B of Guinea Pig CMV strain V545/82) (guinea pig CMV (GPCMV))
Assay: cell-based or functional assay

## ITC88 control antibody
  neutralization of GPCMV V545/82 entry into JH4 cells (highest concentration tested, no effect): > 300 µg/mL
